The values below come from patent CN114702578A (BAISI MEDICAL DIAGNOSTICS TECH BEIJING CO LTD, dated 2022).

The target in this assay is T1, 新型冠状病毒野生型Spike RBD蛋白 (新型冠状病毒野生型 (SARS-CoV-2 wild type), UniProt P0DTC2 319-537).
T1 construct: domain: Spike RBD
The assay can be described thus: ELISA binding experiment (Fig. 3). For orientation: ELISA stands for enzyme-linked immunosorbent assay.

B1: 克隆号为3A7C12的抗体 (antibody, V domains shown)
VH: EVQLVESGGGLVKPGGSLRLSCAASGFTFSSYSMNWVRQAPGKGLEWVSSISSGSSYIYFADSVKGRFTISRDNAKNSLFLQMNSLRAEDTATYYCARAPLGYDSSGYFTMYYFDYWGQGTLVTVSS
VL: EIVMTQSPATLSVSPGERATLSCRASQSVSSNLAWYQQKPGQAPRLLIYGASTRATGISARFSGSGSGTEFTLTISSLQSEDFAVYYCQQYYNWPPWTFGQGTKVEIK
notes: also called 3A7C12克隆号抗体
Turning to B1, the binding result is recorded as “no binding”.
